The text below walks through data of the supplement of paper PMC5998384.

Series [1] relates to HeLa Kyoto. In words: thermal stability score vs G1/S (z-score of summed log2 fold changes over temperatures); higher = more thermally stable than in G1/S.
Series [2] deals with HeLa Kyoto. In words: melting temperature (median over replicates), in situ; higher = more thermally stable.
Series [3] has as its system HeLa Kyoto. In words: solubility in G1/S (NP-40 vs SDS abundance) (log2 ratio); higher = more soluble. To be noted: cell cycle stage: G1/S.
The subject of series [4] is HeLa Kyoto. The experiment in a line: solubility change mitosis vs G1/S (difference of NP-40 vs SDS log2 ratios) (log2 ratio difference); higher = more soluble in mitosis.
[5] abbreviates: cell cycle stage: early G1 (4.5 h after nocodazole release).
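Wherever melting temperature (median over replicates), in situ is given: HeLa Kyoto cells synchronized by double thymidine or nocodazole block, proteins quantified by TMT10plex mass spectrometry, three independent biological replicates.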
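Wherever solubility change mitosis vs G1/S (difference of NP-40 vs SDS log2 ratios) is given: synchronized HeLa Kyoto cells (double thymidine block for G1/S, nocodazole release for mitosis), protein amounts in NP-40 versus SDS lysates quantified by mass spectrometry, three biological replicates.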
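Wherever solubility in G1/S (NP-40 vs SDS abundance) is given: HeLa Kyoto cells arrested at G1/S by double thymidine block, proteins quantified by TMT10plex mass spectrometry in mild NP-40 versus SDS extracts, three biological replicates.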
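Wherever thermal stability score vs G1/S (z-score of summed log2 fold changes over temperatures) is given: synchronized HeLa Kyoto cells, proteins quantified by TMT10plex mass spectrometry, three biological replicates, mitosis taken 0.5 h after nocodazole release, G1/S directly after double thymidine block.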

Consider “MASFVTEVLAHSGRLEKEDLGTRISRLTRRVEEIKGEVCNMISKKYSEFLPSMQSAQGLITQVDKLSEDIDLLKSRIESEVRRDLHVSTGEFTDLKQQLERDSVVLSLLKQLQEFSTAIEEYNCALTEKKYVTGAQRLEEAQKCLKLLKSRKCFDLKILKSLSMELTIQKQNILYHLGEEWQKLIVWKFPPSKDTSSLESYLQTELHLYTEQSHKEEKTPMPPISSVLLAFSVLGELHSKLKSFGQMLLKYILRPLASCPSLHAVIESQPNIVIIRFESIMTNLEYPSPSEVFTKIRLVLEVLQKQLLDLPLDTDLENEKTSTVPLAEMLGDMIWEDLSECLIKNCLVYSIPTNSSKLQQYEEIIQSTEEFENALKEMRFLKGDTTDLLKYARNINSHFANKKCQDVIVAARNLMTSEIHNTVKIIPDSKINVPELPTPDEDNKLEVQKVSNTQYHEVMNLEPENTLDQHSFSLPTCRISESVKKLMELAYQTLLEATTSSDQCAVQLFYSVRNIFHLFHDVVPTYHKENLQKLPQLAAIHHNNCMYIAHHLLTLGHQFRLRLAPILCDGTATFVDLVPGFRRLGTECFLAQMRAQKGELLERLSSARNFSNMDDEENYSAASKAVRQVLHQLKRLGIVWQDVLPVNIYCKAMGTLLNTAISEVIGKITALEDISTEDGDRLYSLCKTVMDEGPQVFAPLSEESKNKKYQEEVPVYVPKWMPFKELMMMLQASLQEIGDRWADGKGPLAAAFSSSEVKALIRALFQNTERRAAALAKIK [ZW10]”, for which the thermal stability score in series [1] (setting [5]) was found to be 0.485; in series [1] (cell cycle stage: mitosis), 1.13. The melting temperature is 49.6 °C in series [2] (cell cycle stage: G1/S) and 49.5 °C in series [2] (cell cycle stage: mitosis). Further, in series [3], the “solubility in G1/S (log2)” value is -0.218. Also, the “solubility change mitosis (log2)” value in series [4] was -0.19.
For the sequence “MAAEGWIWRWGWGRRCLGRPGLLGPGPGPTTPLFLLLLLGSVTADITDGNSEHLKREHSLIKPYQGVGSSSMPLWDFQGSTMLTSQYVRLTPDERSKEGSIWNHQPCFLKDWEMHVHFKVHGTGKKNLHGDGIALWYTRDRLVPGPVFGSKDNFHGLAIFLDTYPNDETTERVFPYISVMVNNGSLSYDHSKDGRWTELAGCTADFRNRDHDTFLAVRYSRGRLTVMTDLEDKNEWKNCIDITGVRLPTGYYFGASAGTGDLSDNHDIISMKLFQLMVEHTPDEESIDWTKIEPSVNFLKSPKDNVDDPTGNFRSGPLTGWRVFLLLLCALLGIVVCAVVGAVVFQKRQERNKRFY [LMAN2]”, the thermal stability score in series [1] (setting [5]) worked out at 2.85; in series [1] (cell cycle stage: mitosis) it was 5.52. For the same sequence, the values for the melting temperature in series [2] (cell cycle stage: G1/S) and in series [2] (cell cycle stage: mitosis) were 54.1 °C and 53.8 °C, respectively. Further, the “solubility in G1/S (log2)” value in series [3] was found to be 0.163. In addition, the “solubility change mitosis (log2)” value in series [4] is -0.0609.
“MAQAKINAKANEGRFCRSSSMADRSSRLLESLDQLELRVEALREAATAVEQEKEILLEMIHSIQNSQDMRQISDGEREELNLTANRLMGRTLTVEVSVETIRNPQQQESLKHATRIIDEVVNKFLDDLGNAKSHLMSLYSACSSEVPHGPVDQKFQSIVIGCALEDQKKIKRRLETLLRNIENSDKAIKLLEHSKGAGSKTLQQNAESRFN [BAG2]”: the thermal stability score in series [1] (setting [5]) is -2.02; in series [1] (cell cycle stage: mitosis), -3.48. Moreover, the melting temperature in series [2] (cell cycle stage: G1/S) and in series [2] (cell cycle stage: mitosis) was 50.9 °C in each case. The “solubility in G1/S (log2)” value in series [3] worked out at 0.345. Moreover, in series [4], the “solubility change mitosis (log2)” value worked out at 0.474.
With “MRGAGAILRPAARGARDLNPRRDISSWLAQWFPRTPARSVVALKTPIKVELVAGKTYRWCVCGRSKKQPFCDGSHFFQRTGLSPLKFKAQETRMVALCTCKATQRPPYCDGTHRSERVQKAEVGSPL [CISD3]”, the thermal stability score is -0.749 in series [1] (setting [5]) and -0.997 in series [1] (cell cycle stage: mitosis). Also, in series [2] (cell cycle stage: G1/S), the melting temperature is 50.8 °C. Also, the “solubility in G1/S (log2)” value in series [3] was -0.205. Also, the “solubility change mitosis (log2)” value in series [4] is 0.0825.
In the case of “MSGFSTEERAAPFSLEYRVFLKNEKGQYISPFHDIPIYADKDVFHMVVEVPRWSNAKMEIATKDPLNPIKQDVKKGKLRYVANLFPYKGYIWNYGAIPQTWEDPGHNDKHTGCCGDNDPIDVCEIGSKVCARGEIIGVKVLGILAMIDEGETDWKVIAINVDDPDAANYNDINDVKRLKPGYLEATVDWFRRYKVPDGKPENEFAFNAEFKDKDFAIDIIKSTHDHWKALVTKKTNGKGISCMNTTLSESPFKCDPDAARAIVDALPPPCESACTVPTDVDKWFHHQKN [PPA1]”, the thermal stability score in series [1] (setting [5]) was 0.184; in series [1] (cell cycle stage: mitosis), -1.97. In addition, the melting temperature is 54.1 °C in series [2] (cell cycle stage: G1/S) and 54.2 °C in series [2] (cell cycle stage: mitosis). Also, the “solubility in G1/S (log2)” value in series [3] is 0.43. In addition, the “solubility change mitosis (log2)” value in series [4] was found to be 0.0519.
